For 32 molecules, Kd, koff and kon results are on record in patent US20240092922A1 (EUCURE BEIJING BIOPHARMA, published 2024).

Positions count from the first letter of the chain named.

To fix the notation:
B1: 5F9-H2K2-IgG4 (antibody, V domains shown)
VH: QVQLKESGPGLVKPSETLSLTCTVSGFSLTTYDISWVRQPPGKGLEWLGVIWTGGGTNYNSSFMSRVTISKDTSKNQVSLKLSSVTAADTAIYYCERVDYWGQGTTVTVSS
VL: DVVMTQSPLSLPVTLGQPASISCRSSQSLVHSNGNTYLHWFQQRPGQSPKLLIYKVSNRFSGVPDRFSGSGSGTAFTFKISRVEAEDVGVYYCSQNTHVPWTFGGGTKVEIK
notes: humanized
B2: 5F9-H1K2-IgG4 (antibody, V domains shown)
VH: B1 VH with K5Q, L48I, I92V
VL: B1 VL
notes: humanized; also called 30-5F9-H1K2-IgG4
B3: 5F9-H2K1-IgG4 (antibody, V domains shown)
VH: B1 VH
VL: B1 VL with K50R
notes: humanized
B4: 5F9-H2K3-IgG4 (antibody, V domains shown)
VH: B1 VH
VL: B1 VL with F41Y, V109L
notes: humanized
B5: 5F9-H3K1-IgG4 (antibody, V domains shown)
VH: B1 VH with L20I, T73N, V107L
VL: B1 VL with K50R
notes: humanized
B6: 5F9-H3K2-IgG4 (antibody, V domains shown)
VH: B1 VH with L20I, T73N, V107L
VL: B1 VL
notes: humanized
B7: 5F9-H1K1-IgG4 (antibody, V domains shown)
VH: B1 VH with K5Q, L48I, I92V
VL: B1 VL with K50R
notes: humanized
B8: 5F9-H1K4-IgG4 (antibody, V domains shown)
VH: B1 VH with K5Q, L48I, I92V
VL: B1 VL with Q17D, F41Y, Q42L, V109L
notes: humanized
B9: 5F9-H1K3-IgG4 (antibody, V domains shown)
VH: B1 VH with K5Q, L48I, I92V
VL: B1 VL with F41Y, V109L
notes: humanized
B10: 5F9-H3K3-IgG4 (antibody, V domains shown)
VH: B1 VH with L20I, T73N, V107L
VL: B1 VL with F41Y, V109L
notes: humanized
B11: 5F9-H2K4-IgG4 (antibody, V domains shown)
VH: B1 VH
VL: B1 VL with Q17D, F41Y, Q42L, V109L
notes: humanized
B12: 5F9-H3K4-IgG4 (antibody, V domains shown)
VH: B1 VH with L20I, T73N, V107L
VL: B1 VL with Q17D, F41Y, Q42L, V109L
notes: humanized
B13: 1C4-H1K2-IgG4 (antibody, V domains shown)
VH: QVQMVQSGAEVKKPGASVKLSCKASGFTFSSSYINWLRQAPGQRLEWMGWIFAGTGGTYYNQKFTGRVTITRDTSASTAYMELSSLRSEDTAIYYCARHSPRATLFDFWGQGTTLTVSS
VL: EIVLTQSPATLSLSPGERATLSCRASSSVNHMHWYQQKPGQAPRALIYATSNLASGIPARFSGSGSGTSFTLTISSLEPEDFATYYCQQWSSNPYTFGGGTKLEIK
notes: humanized
B14: 1C4-H2K4-IgG4 (antibody, V domains shown)
VH: B13 VH with R44S, M48I, T69Q
VL: B13 VL with L13A, A19V, L21M, K38R, Q41F, A42S, L46W, F70Y, T71S
notes: humanized
B15: 1C4-H3K4-IgG4 (antibody, V domains shown)
VH: B13 VH with R44S, M48I, V68A, T69Q
VL: B13 VL with L13A, A19V, L21M, K38R, Q41F, A42S, L46W, F70Y, T71S
notes: humanized
B16: 1C4-H2K1-IgG4 (antibody, V domains shown)
VH: B13 VH with R44S, M48I, T69Q
VL: B13 VL with T84V
notes: humanized
B17: 1C4-H2K2-IgG4 (antibody, V domains shown)
VH: B13 VH with R44S, M48I, T69Q
VL: B13 VL
notes: humanized
B18: 1C4-H4K4-IgG4 (antibody, V domains shown)
VH: B13 VH with V2G, A24T, R44S, M48I, G49A, V68A, T69Q, I70L, R72V
VL: B13 VL with L13A, A19V, L21M, K38R, Q41F, A42S, L46W, F70Y, T71S
notes: humanized
B19: 1C4-H1K3-IgG4 (antibody, V domains shown)
VH: B13 VH
VL: B13 VL with L21M, Q41F, A42S, L46W
notes: humanized
B20: 1C4-H1K4-IgG4 (antibody, V domains shown)
VH: B13 VH
VL: B13 VL with L13A, A19V, L21M, K38R, Q41F, A42S, L46W, F70Y, T71S
notes: humanized
B21: 1C4-H4K1-IgG4 (antibody, V domains shown)
VH: B13 VH with V2G, A24T, R44S, M48I, G49A, V68A, T69Q, I70L, R72V
VL: B13 VL with T84V
notes: humanized
B22: 1C4-H3K3-IgG4 (antibody, V domains shown)
VH: B13 VH with R44S, M48I, V68A, T69Q
VL: B13 VL with L21M, Q41F, A42S, L46W
notes: humanized
B23: 1C4-H3K2-IgG4 (antibody, V domains shown)
VH: B13 VH with R44S, M48I, V68A, T69Q
VL: B13 VL
notes: humanized
B24: 1C4-H4K2-IgG4 (antibody, V domains shown)
VH: B13 VH with V2G, A24T, R44S, M48I, G49A, V68A, T69Q, I70L, R72V
VL: B13 VL
notes: humanized
B25: 1C4-H4K3-IgG4 (antibody, V domains shown)
VH: B13 VH with V2G, A24T, R44S, M48I, G49A, V68A, T69Q, I70L, R72V
VL: B13 VL with L21M, Q41F, A42S, L46W
notes: humanized
B26: 6A5-H2K2-IgG2 (antibody, V domains shown)
VH: QVQLVQSGAEVKKPGSSVKLSCKASGYTFSSYWINWVRQAPGQGLEWIGNIYPSDSYTNYNQKFKDRATLTVDKSTSTAYMELSSLRSEDTAVYYCTRTWEFYYDSVFDYWGQGTLVTVSS
VL: DIQMTQSPSSLSASLGERVTITCKASQDINSYLSWYQQKPGKAPKTLIYRANRLVDGVPSRFSGSGSGQDFTLTISSLQPEDIATYYCLQYDELPPTFGGGTKVEIK
notes: humanized
B27: 6A5-H1K2-IgG2 (antibody, V domains shown)
VH: B26 VH with I48M, A68V
VL: B26 VL
notes: humanized
B28: 6A5-H1K4-IgG2 (antibody, V domains shown)
VH: B26 VH with I48M, A68V
VL: B26 VL with Y36F, F71Y, V104L
notes: humanized
B29: 6A5-H2K3-IgG2 (antibody, V domains shown)
VH: B26 VH
VL: B26 VL with Y36F
notes: humanized
B30: 6A5-H1K1-IgG2 (antibody, V domains shown)
VH: B26 VH with I48M, A68V
VL: B26 VL with T46L
notes: humanized
B31: 6A5-H1K3-IgG2 (antibody, V domains shown)
VH: B26 VH with I48M, A68V
VL: B26 VL with Y36F
notes: humanized
B32: 6A5-H2K1-IgG2 (antibody, V domains shown)
VH: B26 VH
VL: B26 VL with T46L
notes: humanized
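Also: dissociation phase followed for 300 s, Kd derived as koff divided by kon from the kinetic fit.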

In the experiment the target is T1, Histidine-tagged human 4-1BB protein (h4-1BB-His) (human, UniProt Q07011 24-186).
T1 construct: not shown: histidine tag
The experiment in a line: SPR (Biacore T200), antibody on Protein A chip, h4-1BB-His injected. (SPR reads the build-up and loss of mass on a sensor chip optically.)
B1 came in with a Kd of 13.4 nM, a koff of 0.00261 s⁻¹ and a kon of 194000 M⁻¹ s⁻¹.
In turn, B2 displayed an equilibrium dissociation constant (Kd) of 12 nM, a koff of 0.00247 s⁻¹ and a kon of 205000 M⁻¹ s⁻¹.
B3 had a Kd of 11.2 nM, an off-rate constant (koff) of 0.00225 s⁻¹ and an on-rate (kon) of 202000 M⁻¹ s⁻¹.
The molecule B4 showed a dissociation constant (Kd) of 9.81 nM, an off-rate (koff) of 0.00207 s⁻¹ and an on-rate constant (kon) of 212000 M⁻¹ s⁻¹.
B5 registered a Kd of 12.2 nM, a koff of 0.00242 s⁻¹ and an on-rate (kon) of 198000 M⁻¹ s⁻¹.
The molecule B6 showed a Kd of 13.7 nM, an off-rate (koff) of 0.00258 s⁻¹ and a kon of 188000 M⁻¹ s⁻¹.
In the case of B7, the dissociation constant (Kd) is 11.4 nM, the koff amounted to 0.00253 s⁻¹ and the kon turned out to be 222000 M⁻¹ s⁻¹.
Regarding B8, binding was put at a Kd of 9.95 nM, the koff turned out to be 0.00244 s⁻¹ and the kon is 246000 M⁻¹ s⁻¹.
Molecule B9 came in with a Kd of 10.1 nM, a dissociation rate constant (koff) of 0.00208 s⁻¹ and a kon of 206000 M⁻¹ s⁻¹.
The molecule B10 showed a Kd of 10.5 nM, a koff of 0.0022 s⁻¹ and an association rate constant (kon) of 210000 M⁻¹ s⁻¹.
For B11, in that order: 12.4 nM, 0.00269 s⁻¹ and 216000 M⁻¹ s⁻¹.
Regarding B12, binding was put at a Kd of 11.4 nM, the dissociation rate constant (koff) came to 0.0027 s⁻¹ and the on-rate (kon) was found to be 236000 M⁻¹ s⁻¹.
Regarding B13, the affinity, expressed as Kd, was 22 nM; the koff worked out at 0.000605 s⁻¹; the kon came to 27500 M⁻¹ s⁻¹.
For the molecule B14, binding was put at a Kd of 20.7 nM, the koff is 0.000521 s⁻¹ and the kon came out at 25200 M⁻¹ s⁻¹.
Regarding B15, the Kd was 15.9 nM, the koff came out at 0.000476 s⁻¹ and the kon is 30000 M⁻¹ s⁻¹.
Turning to B16, the Kd is 19.4 nM, the koff was 0.000502 s⁻¹ and the kon worked out at 25900 M⁻¹ s⁻¹.
The molecule B17 registered a dissociation constant (Kd) of 25.1 nM, a koff of 0.000646 s⁻¹ and an on-rate (kon) of 25800 M⁻¹ s⁻¹.
In turn, B18 yielded a Kd of 19.3 nM, a koff of 0.00056 s⁻¹ and a kon of 29000 M⁻¹ s⁻¹.
B19 yielded a Kd of 21.8 nM, a koff of 0.000623 s⁻¹ and a kon of 28500 M⁻¹ s⁻¹.
For B20, binding was put at a Kd of 23.9 nM, the dissociation rate constant (koff) worked out at 0.000614 s⁻¹ and the kon turned out to be 25700 M⁻¹ s⁻¹.
On to B21, for which the Kd is 18.2 nM, the koff is 0.000516 s⁻¹ and the kon turned out to be 28400 M⁻¹ s⁻¹.
B22: the Kd turned out to be 17.1 nM, the off-rate (koff) worked out at 0.000533 s⁻¹ and the kon amounted to 31200 M⁻¹ s⁻¹.
Take B23: the affinity, expressed as Kd, was 16.3 nM; the off-rate (koff) is 0.000453 s⁻¹; the kon is 27700 M⁻¹ s⁻¹.
Regarding B24, the Kd was 16.6 nM, the koff was 0.00049 s⁻¹ and the on-rate constant (kon) was 29600 M⁻¹ s⁻¹.
In the same order, the values of B25 are 16.9 nM, 0.000556 s⁻¹ and 32900 M⁻¹ s⁻¹.
Consider B26, for which the Kd was 0.28 nM, the koff turned out to be 0.000652 s⁻¹ and the kon worked out at 2.33e+06 M⁻¹ s⁻¹.
B27 registered a dissociation constant Kd of 0.278 nM, a koff of 0.000662 s⁻¹ and an on-rate constant (kon) of 2.38e+06 M⁻¹ s⁻¹.
B28 returned a dissociation constant (Kd) of 0.321 nM, a koff of 0.000693 s⁻¹ and an association rate constant (kon) of 2.16e+06 M⁻¹ s⁻¹.
On to B29, for which binding was put at a Kd of 0.221 nM, the koff was determined as 0.000504 s⁻¹ and the on-rate constant (kon) amounted to 2.28e+06 M⁻¹ s⁻¹.
B30 registered a Kd of 1.17 nM.
B31 returned a Kd of 0.214 nM, a koff of 0.000475 s⁻¹ and an association rate constant (kon) of 2.22e+06 M⁻¹ s⁻¹.
Molecule B32 returned a Kd of 2.32 nM, a koff of 0.00155 s⁻¹ and a kon of 668000 M⁻¹ s⁻¹.

As a reminder, the Kd is the constant that tells how readily two partners part at equilibrium. Read a low Kd as a tighter complex. Broadly, the koff is the rate constant with which the complex falls apart. A lower koff goes with a long-lived complex. A word on the kon: it is the second-order rate constant of association. Read a high kon as fast association.
